Legend:
[1] = target: HIV-1 integrase, wild type, full-length (HIV-1); experiment: SEC; analytical SEC of IN alone (or an equimolar mixture of two mutants); Shodex KW403-4F column on ice, 750 mM NaCl, 10 mM MgCl2, 20 mM HEPES-NaOH pH 7.0; 35 µl IN at 0.6 mg/ml with 25 µM ZnCl2 and 2.8 mM CHAPS
[2] = target: HIV-1 integrase, wild type, full-length (HIV-1); experiment: cross-linking; BS3 (2-0.2 mM), 3 µM IN or 1.5 µM each of two mutants, 0.75 M NaCl, 2 mM MgSO4, 25 µM ZnCl2, 25 mM Hepes-NaOH pH 7.5, 30 min at 18°C; SDS-PAGE, Sypro Orange
[3] = target: HIV-1 integrase, wild type, full-length (HIV-1); experiment: SEC; analytical SEC as for IN alone, but 0.3 mg/ml LEDGF IBD pre-incubated with IN on ice for 5 min before injection; Shodex KW403-4F on ice, 750 mM NaCl, 10 mM MgCl2, 20 mM HEPES-NaOH pH 7.0

For “HIV-1 integrase, wild type, full-length (enzyme)”, which stoichiometry N [1] is on record?
The stoichiometry N was 4.

What about the stoichiometry N [2] of the same substance?
Its stoichiometry N is 4.

Which stoichiometry N (per IN tetramer) [3] does the source give for “integrase binding domain of lens epithelium derived growth factor (LEDGF IBD) (from UniProt O75475 1-435) (domain or fragment)” here?
The stoichiometry N (per IN tetramer) was 4.

Source: PMC2705190
